Literature values as cited in PMC5753338.

Molecular target: BAIAP2L1/IRTKS SH3 (Homo sapiens) (UniProt Q9UHR4)
UniProt Q9UHR4, sequence (Q9UHR4 336-405): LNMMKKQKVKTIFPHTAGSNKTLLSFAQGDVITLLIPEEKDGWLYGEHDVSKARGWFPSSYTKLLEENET

In the case of EspFU PxxP motifs (from UniProt P0DJ88), the Kd is given as 500 nM.
